Test results reported in IntAct's records for PubMed 20067578.

Target: mp2k6_human MAP2K6 (UniProt P52564)
UniProt P52564, sequence (P52564 whole entry): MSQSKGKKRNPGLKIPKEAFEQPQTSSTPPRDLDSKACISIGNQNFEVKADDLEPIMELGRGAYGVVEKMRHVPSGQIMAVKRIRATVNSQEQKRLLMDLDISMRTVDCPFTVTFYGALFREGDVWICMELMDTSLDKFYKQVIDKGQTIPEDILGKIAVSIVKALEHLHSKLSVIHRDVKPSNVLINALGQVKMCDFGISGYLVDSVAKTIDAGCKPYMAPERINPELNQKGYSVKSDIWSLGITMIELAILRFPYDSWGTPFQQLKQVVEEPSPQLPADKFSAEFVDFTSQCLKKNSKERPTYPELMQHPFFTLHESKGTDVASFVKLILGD

Substance: Leucine-rich repeat serine/threonine-protein kinase 2 (Homo sapiens), Q5S007 R1441C
- effect of a mutation on the interaction: increasing interaction
